One molecule from patent US20110150903A1 (Sanofi, published 2011) can be followed below.

Where “and” joins values, the source holds several entries; their conditions need not be identical. Equal values may be shown once.

The target of experiment [1] is T1, rat FGF-R4 expressed on transfected 300-19 cells (rat, UniProt Q498D6 17-800).
T1 construct: also called rFGFR4
Kind of experiment: displacement of labelled rat FGF2 from rat FGF-R4 on 300-19 cells; rat FGF-R4, rat FGF2; in ng/ml.
Procedure: (§1) Firstly, competition binding experiments were carried out.
(§2) The dissociation experiments were carried out using the 300-19 lines transfected with mouse or rat FGF-R4 receptors.

A further experiment addresses T2, hFGFR4_D3:Fc (SABVA4799) (human).
T2 construct: also called fGFGR4_D3::Fc
The experiment is described as follows: ELISA on coated subdomain-Fc construct.

Another experiment has as its target T3, hFGFR4_D1:Fc (SABVA4794) (human).
T3 construct: FGF-R4_HUMAN positions 1 to 179 fused to the Fc domain of human IgG1; also called fGFGR4_D1::Fc
Kind of experiment: ELISA on coated subdomain-Fc construct. (ELISA stands for enzyme-linked immunosorbent assay.)

Another experiment deals with T4, hFGFR4_D2:Fc (SABVA4796) (human).
T4 construct: FGF-R4_HUMAN positions 1 to 32 plus 145 to 242 fused to the Fc domain of human IgG1; also called fGFGR4_D2::Fc
Kind of experiment: ELISA on coated subdomain-Fc construct.

Experiment [2] addresses T5, human FGF-R4 recombinant extracellular domain protein, construct not named (human, UniProt P22455 22-369).
T5 construct: extracellular domain; also called the FGF-R4 protein; complete extracellular domain of human FGF-R4
The experiment is described as follows: SPR (BIAcore), antibody captured by anti-Fc antibody on the chip. Background: Surface plasmon resonance follows binding to a sensor surface in real time, without labels.

A further experiment addresses T6, hFGFR1-Fc (human).
T6 construct: Extracellular domain of human FGF-R1 IIIc fused C-terminally to the Fc domain of human IgG1
The experiment is described as follows: ELISA on plates coated with the 4 human FGF receptors, antibody concentration not given.

Another experiment addresses T7, hFGFR3-Fc (human, UniProt P22607 23-375).
T7 construct: extracellular domain; Bought from R&D Systems; not shown: Fc domain of human IgG1
T7 sequence (looked up): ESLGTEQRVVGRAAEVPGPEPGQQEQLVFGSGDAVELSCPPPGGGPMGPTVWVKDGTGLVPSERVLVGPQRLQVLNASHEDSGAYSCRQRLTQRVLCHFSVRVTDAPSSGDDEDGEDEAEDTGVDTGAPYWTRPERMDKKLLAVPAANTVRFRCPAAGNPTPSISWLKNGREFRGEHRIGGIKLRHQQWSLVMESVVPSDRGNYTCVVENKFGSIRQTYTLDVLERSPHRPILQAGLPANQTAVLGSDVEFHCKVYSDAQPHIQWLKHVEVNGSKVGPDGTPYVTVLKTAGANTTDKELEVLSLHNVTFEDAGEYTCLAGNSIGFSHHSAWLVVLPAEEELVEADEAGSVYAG
Described as above.

The next experiment addresses T8, hFGFR2-Fc (human).
T8 construct: Extracellular domain of human FGF-R2 IIIc fused C-terminally to the Fc domain of human IgG1
The experiment is described as above.

For experiment [3], the target named is T9, human FGF-R4 expressed on cells (human, UniProt P22455 22-802).
T9 construct: whole, on cells; Functional assays: endogenous receptor of human Hep3b and HUVEC cells; also called human FGF-R4s expressed at the surface of transfected 300-19 cells; FGF-R4 of Hep3b and HUVEC cells
Kind of experiment: displacement of FGF2-AF488 (10 ng/ml) from human FGF-R4 on 300-19 cells.

Experiment [4] concerns the target T10, mouse FGF-R4 expressed on transfected 300-19 cells (mouse, UniProt Q03142 17-799).
T10 construct: whole, on cells; also called murine FGF-R4
The experiment is described as follows: displacement of labelled murine FGF2 from mouse FGF-R4 on 300-19 cells; mouse FGF-R4, murine FGF2; in ng/ml.
Procedure: as §1, §2

Source text for hFGFR4_D1:Fc (SABVA4794): (§3) The capture antigen was bound to Immulon-4 enzyme-linked plates (VWR Scientific Inc. Swedesboro, N.J.).
Source text for hFGFR4_D2:Fc (SABVA4796): as §3
Source text for hFGFR4_D3:Fc (SABVA4799): as §3

B1: anti-FGFR4 antagonist monoclonal antibody 40-12 (antibody, mouse IgG1, kappa, V domains shown)
VH: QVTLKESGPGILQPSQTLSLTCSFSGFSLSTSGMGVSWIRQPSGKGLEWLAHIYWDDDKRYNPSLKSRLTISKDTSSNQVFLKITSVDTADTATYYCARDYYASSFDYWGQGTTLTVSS
VL: DIVLTQSPATLSVTPGDRVSLSCRASQSISNYLHWYQQKSHESPRLLIKYASQSISGIPSRFSGSGSGTDFILSFNSVETEDFGMYFCQQSNSWPFTFGSGTKLEIKR
notes: Purified on protein G; also called clone 40-12; anti-FGFR4 40-12
For B1, the IC50 in experiment [1] was 3.94 µg/mL; in experiment [3], 3.5 µg/mL and 23 nM; in experiment [4], 4.11 µg/mL. Also, the “Signal (O.D., 450 nm)” value in the experiment with hFGFR4_D3:Fc (SABVA4799) worked out at 0.105 O.D. 450 nm; with hFGFR4_D1:Fc (SABVA4794), 0.185 O.D. 450 nm; with hFGFR4_D2:Fc (SABVA4796) it was 3 O.D. 450 nm. Also, in [2], the Kd was found to be 6.5 nM. The koff in [2] was found to be 0.00126 s⁻¹. Besides, the kon in experiment [2] was determined as 194000 M⁻¹ s⁻¹. The binding result with hFGFR1-Fc, with hFGFR3-Fc and in the experiment with hFGFR2-Fc was “no binding” throughout.

The IC50 is the point on the concentration scale where inhibition reaches its midpoint. Usually Kd stands for the free concentration of one partner at which half of the binding sites on the other are occupied at equilibrium, for simple one-to-one binding. As usually defined, the koff is a measure of how fast the partners let go of each other. As usually defined, the kon is the rate constant with which the complex forms.
